From patent US20050027104A1

Tests used:
[1] = target: human IgD (probe or solid phase; preparation not specified at the place) (human) (UniProt P01880); experiment: SDS-PAGE and Western blot with IgD after 60 C treatment, densitometry, 6 experiments; reference: monomeric MID962-1200
[2] = target: One of the two myelomas (purified IgD(κ) or IgD(λ); which one is not stated); experiment: dot blot, purified MID in dilutions on membrane, IgD myeloma protein as probe
[3] = target: surface-expressed B cell receptor (BCR) IgD on human CD19+ peripheral blood lymphocytes (human) (UniProt P01880); experiment: flow cytometry, MID-FITC on PBLs preincubated with rabbit anti-human IgD immunoglobulin fraction (competitor)
[4] = target: surface-expressed B cell receptor (BCR) IgD on human CD19+ peripheral blood lymphocytes (human) (UniProt P01880); experiment: flow cytometry, MID-FITC on PBLs incubated with the pre-immune serum (no blocking)

Sequence of UniProt P01880 (P01880 whole entry): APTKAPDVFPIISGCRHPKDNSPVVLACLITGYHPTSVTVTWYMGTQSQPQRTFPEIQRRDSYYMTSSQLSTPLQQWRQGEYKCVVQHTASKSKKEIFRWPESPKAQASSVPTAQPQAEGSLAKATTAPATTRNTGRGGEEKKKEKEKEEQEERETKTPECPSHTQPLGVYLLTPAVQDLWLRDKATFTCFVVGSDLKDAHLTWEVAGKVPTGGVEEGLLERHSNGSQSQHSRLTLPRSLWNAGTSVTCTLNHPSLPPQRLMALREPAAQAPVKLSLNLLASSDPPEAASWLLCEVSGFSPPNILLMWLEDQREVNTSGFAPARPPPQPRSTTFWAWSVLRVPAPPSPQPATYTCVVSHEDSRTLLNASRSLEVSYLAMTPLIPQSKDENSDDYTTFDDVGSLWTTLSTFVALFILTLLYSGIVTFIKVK

MID962-1200 (F2), tetrameric form
fold more efficient binding to IgD than the monomeric form [1]: 23 fold

MID, IgD-binding surface exposed protein purified from Moraxella catarrhalis strain Bc5 (native full length MID1-2139)
least amount of MID detected on the membrane [2]: 0.001 µg | Mean fluorescence intensity (arbitrary units) [3]: 14.6 | Mean fluorescence intensity (arbitrary units) [4]: 79.2
